# Measured values reported in US20250250357A1 (NANJING ZAIMING PHARMACEUTICAL, published 2025).
# T1: human MSLN-R1-his protein (human, UniProt Q13421 296-390)
# T1 construct: also called hMSLN-R1-his; human MSLN-R1 protein; not shown: His tag
# T1 chain: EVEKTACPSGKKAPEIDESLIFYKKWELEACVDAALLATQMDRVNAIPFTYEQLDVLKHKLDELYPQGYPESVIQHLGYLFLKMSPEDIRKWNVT
# Key:
# [1] = target: T2, human MSLN-R3-his protein (human, UniProt Q13421 487-598); test: ELISA; antibody 10 nM
# T2 construct: also called hMSLN-R3-his; not shown: His tag
# [2] = target: T2, human MSLN-R3-his protein; test: ELISA; antibody 0.01 nM
# [3] = target: T3, human MSLN-R2-his protein (human, UniProt Q13421 391-486); test: ELISA; antibody 1 nM
# T3 construct: also called hMSLN-R2-his; not shown: His tag
# [4] = target: T1, human MSLN-R1-his protein; test: ELISA; antibody 1 nM
# [5] = target: T2, human MSLN-R3-his protein; test: ELISA; antibody 1 nM
# [6] = target: T4, human MSLN-FL-his protein (human, UniProt Q13421 296-580); test: ELISA; antibody 1 nM
# T4 construct: also called hMSLN-FL-his; human MSLN full-length protein; not shown: His tag
# [7] = target: T5, human MSLN-FL-his protein (human, UniProt Q13421 296-580); test: competitive ELISA; row F2.39.3
# T5 construct: made in HEK293E cells, purified on nickel column; also called hMSLN-FL-his; human MSLN full-length protein; not shown: His tag
# T5 sequence (Q13421 other isoform, or with tags, fused parts or gaps): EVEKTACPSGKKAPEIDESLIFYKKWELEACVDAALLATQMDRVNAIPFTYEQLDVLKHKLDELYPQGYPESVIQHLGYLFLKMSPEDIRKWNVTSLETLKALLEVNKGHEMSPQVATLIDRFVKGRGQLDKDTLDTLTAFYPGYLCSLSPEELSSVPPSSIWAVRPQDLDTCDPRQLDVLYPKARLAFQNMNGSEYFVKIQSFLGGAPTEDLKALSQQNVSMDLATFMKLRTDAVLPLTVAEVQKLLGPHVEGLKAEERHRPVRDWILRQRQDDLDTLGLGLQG
# [8] = target: T5, human MSLN-FL-his protein; test: competitive ELISA; row F2.17.3
# Procedure: In order to identify antigen-binding sites of antibodies, MSLN chimeric antibodies were grouped using competitive ELISA.
# The chimeric antibodies were diluted to 2 μg/mL with PBS and allowed to coat 96-well high-adsorption ELISA plates at 50 μL/well. After the plates were coated at 4° C. overnight, 250 μL of a blocking buffer (PBS containing 2% (w/w) BSA) was added for two hours of blocking at room temperature. 40 μg/mL of the antibodies to be tested were added, and then the human MSLN-FL-His protein with an EC₈₀ concentration corresponding to each of the antibodies to be tested was added for incubation for 2 h. The plates were washed 5 times with PBS, an HRP-labeled anti-His secondary antibody (purchased from Genescript, Cat. No. A00612) was then added for incubation for 1 h, and the plates were washed 5 times again. A TMB substrate was added at 50 μL/well, and after 10 minutes of incubation at room temperature, a stop solution (1.0 M HCl) was added at 50 μL/well. OD₄₅₀ nm values were read using an ELISA plate reader (Insight, purchased from PerkinElmer), and the competition rate between the antibodies was calculated according to the OD₄₅₀ nm values using a formula.
# T2 sequence (Q13421 495-606): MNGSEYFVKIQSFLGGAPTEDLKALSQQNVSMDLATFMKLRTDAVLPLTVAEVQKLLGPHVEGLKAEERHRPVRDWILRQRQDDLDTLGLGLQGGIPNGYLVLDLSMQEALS
# T3 sequence (Q13421 other isoform, or with tags, fused parts or gaps): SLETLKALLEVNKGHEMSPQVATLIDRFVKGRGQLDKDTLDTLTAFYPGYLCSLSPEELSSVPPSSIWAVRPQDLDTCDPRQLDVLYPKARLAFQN
binder,measurement,setting,value
"Tab107 (YP3, hIgG1) (antibody, V domains shown, Control antibody; VH and VL recombined into human IgG1 CH and CL expression vectors; also called YP3 human IgG1 antibody) VH: QEQLVESGGGLVQPGASLTLTCTASGIDFSRYYMCWVRQAPGKGLEGIACIYIGGSGSTYYASWAKGRFTISKASSTTVTLQMTSLTAADTATYFCARGTNLNYIFRLWGPGTLVTVSS VL: DVVMTQTPSPVSAAVGGTVTIKCQASQSINNGLAWYQQKPGQPPRLLIYSASNLESGVPSRFKGSGSGTEFTLTISDLECDDAATYYCQCIWDGNSYVNAFGGGTEVVVRT",OD450 nm,[1],0.05
same,OD450 nm,[2],0.04
same,OD450 nm,[3],0.05
same,OD450 nm,[4],0.05
same,OD450 nm,[5],0.05
same,OD450 nm,[6],1.74
same,competition rate,[7],-24%
same,competition rate,[8],-86%
